Consider twelve molecules from patent US20250034594A1, “RNA-GUIDED GENOME RECOMBINEERING AT KILOBASE SCALE” (THE BOARD OF TRUSTEES OF THE LELAND STANFORD JUNIOR …, priority 2021, published 2025).

Common to all, as to format: cell-based
Assay [1] deals with gene editing with Cas9 and dCas9. The experiment in a line: Screen of 322 new SSAP proteins, activity across all experiments (Cas9 and dCas9, Table 5). Also noted: scale not given here. From the text:
(§1) 322 new SSAP proteins were identified from sequence data, synthesized, and screened for activity with Cas9 and dCas9. Gene editing activities are shown below in Table 5, followed by amino acid sequences of the proteins.

For assay [2], the system named is gene editing with Cas9. The experiment in a line: Screen of 322 new SSAP proteins, gene editing activity with Cas9 (Table 5). Set-up: Cas9 with SSAP activity: scale not given here.
Text: as §1

Assay [3] deals with gene editing with dCas9. The experiment in a line: Screen of 322 new SSAP proteins, gene editing activity with dCas9 (Table 5). Also noted: dCas9 with SSAP activity: scale not given here.
Text: as §1

B1: SSAP_57: SEQ ID NO: 226; Pirellula sp. SH-Sr6A (protein, listed as Pirellula sp.)
chain: SEATKEAKPETAIAKKPNGIKDWLKSDALKTQIASVAPKHMAPERVMRIALNAVSRTPKLADCTPESFMRCLLDLSSWGLVPDGRHAHLIPYGTECTLVLDYKGLVTLAYRSGWVKKIHADVVFEGDIFVYSLGTVCQHIPWEFRDDANKPEHKGHFRAAYCVVTMADGIEKHEVMTASEIDAIKAKSRSGNSGPWKDHYTEMAKKTVYRRASKWLPLSPEQADAMERDDDRIIDAVSVAVTQRLSKAAMPLIGANETGDTE
Take B1: the “Activity across all experiments” value in assay [1] is reported as −3.391. In assay [2], the “Cas9 with SSAP activity” value is −3.376 and the “Cas9 with SSAP activity (normalized)” value is reported as −0.549. Moreover, in assay [3], the “dCas9 with SSAP activity” value is −3.405 and the “dCas9 with SSAP activity (normalized)” value was −0.557.

B2: SSAP_225: SEQ ID NO: 394; Actinocrispum wychmicini (protein, listed as Actinocrispum wychmicini)
chain: SQTVTAAVAQRDNGAQALIAKYRTDFAQVLPSHLRPTTFVRLSQGLLRRNVKLAEAAERNPASFLAALLECARLGHDPGTDQFALVPFNDRKRNTVEVVGIEQYQGVIERMYRAGAVRSVKAEVVRAADPFEYAPDVMDRPGHKPNWFADRGELIGVYAYAEFFDGSTSRVVMMNRETVMAHKAKSRGATSEDSPWQAWEESMWLKTAVHELEKWVPTSSEDRRAARDGTADPAPVEVPRVADEVLDADLVEDDHADHPTATPTGDVR
As for B2, in assay [1], the “Activity across all experiments” value is listed as −2.204. Moreover, in assay [2], the “Cas9 with SSAP activity” value is reported as −0.830 and the “Cas9 with SSAP activity (normalized)” value is −0.252. Further, in assay [3], the “dCas9 with SSAP activity” value is on record as −3.577 and the “dCas9 with SSAP activity (normalized)” value is −0.602.

B3: SSAP_96: SEQ ID NO: 265; Plesiomonas shigelloides (protein)
chain: SNQRPPIATADLQKAQSQPPAAKPEQNLINFINQPSMKSQIAAALPRHMAPERMIRIITTEIRKTPKLATCDVQSFIGAVVQCSQLGLEPGGGLGHAYLLPFGNGKAESGKPNVQLIIGYRGMIDLARRSGQIVSISSRIVREGDQFHYEYGLNETLKHVPGDNESAPITHVYAVAKLKDGGTQFEVMSFNEIEKIRGQSKAGNDGPWIKHWEEMAKKTVIRRLFKYLPVSIEMQRAVILDEKAEADIEQDNASIIGAEYSVVENAA
modifications: Plesiomonas shigelloides
For B3, the “Activity across all experiments” value in assay [1] is given as −1.869. Moreover, in assay [2], the “Cas9 with SSAP activity” value was −0.322 and the “Cas9 with SSAP activity (normalized)” value is −1.581. Also, in assay [3], the “dCas9 with SSAP activity” value is −3.416 and the “dCas9 with SSAP activity (normalized)” value is −1.995.

B4: SSAP_26: SEQ ID NO: 195 (protein)
chain: TVQLVQPRNSDEYDFDQTKLDLIKRTICKGATNDELQLFIHACKRTGLDPFMRQIFAVKRWDSSTKKEIMTIQTGIDGYRLIADRTGKYAPGKDTEFGYDNKGNIRWAKAYIKKMTPDGQWHEISAIAFWEEYVQTTREGKSTLFWLKKSHIMLSKCTEALALRKTFPAERSGIYTKEEMAQEFSPLEEHLVERIAASRNDQGRS
On to B4, for which the “Activity across all experiments” value in assay [1] is −1.354. Further, in assay [2], the “Cas9 with SSAP activity” value came to 0.692 and the “Cas9 with SSAP activity (normalized)” value stood at 1.723. Moreover, in assay [3], the “dCas9 with SSAP activity” value is given as −3.399 and the “dCas9 with SSAP activity (normalized)” value is recorded as −0.852.

B5: SSAP_237: SEQ ID NO: 406; Paenibacillus popilliae ATCC 14706 (protein, listed as Paenibacillus popilliae)
chain: STSHLLTIHNNLEKLIDSKREAMPKSFNKTRFLQNCMTVLQDTKDVGKCDPQSVARTLLKGAFLGLDFFNKECYAITYGGSVQFQTDYKGEKKLAKKYSVRPVKDIYAKLVREGDEFIEEIKDGQPTVQFKPLPFNDSEIKGAFAVSLFEDDGLAYEVMSVAEIELTRKNYSKQPNGQAWVKSKGEMYKKTVLRRLCKNIELDFDTIEQAQAFEDSSDFEFNKEPKQAQQSPLNPQATVIDAEYEEVKEESDNETNQE
As to B5, in assay [1], the “Activity across all experiments” value was −5.493. In addition, the “Cas9 with SSAP activity” value in assay [2] is −7.473. In addition, in assay [3], the “dCas9 with SSAP activity” value is on record as −3.513 and the “dCas9 with SSAP activity (normalized)” value is −0.512.

B6: SSAP_169: SEQ ID NO: 338; Streptomyces showdoensis (protein, listed as Streptomyces showdoensis)
chain: TSDARNAVARRAANVGQVEQAGEQPKPTMAQQIERMKPEIARALPKHMDADRIARIALTLIRKNPDLANCTTESFLGALMTCSQLGFEPGSPTQEAYIIPRKGQAEFQLGYQGMVTLFYQHPMASSVKVETVRENDYFEHEEGLEERLIHRPFADGPRGKAIAYYSVARLINGGRTFKVMYPAEIEERRQKLPSKNSPAWRDNYDEMAKKTVLRNHFKALPKSAELARALAHDGTVRTDWQPDAIDVPPEYLSEPQRPELEAGAQ
Regarding B6, the “Activity across all experiments” value in assay [1] is given as −2.669. For the same molecule, in assay [2], the “Cas9 with SSAP activity” value was −1.842 and the “Cas9 with SSAP activity (normalized)” value is reported as −1.968. In assay [3], the “dCas9 with SSAP activity” value is given as −3.497 and the “dCas9 with SSAP activity (normalized)” value is given as −0.528.

B7: SSAP_267: SEQ ID NO: 436; Clostridium combesii (protein, listed as Clostridium combesii)
chain: ANTKAIVLQETANNLNTLLKAKVKALPKGFNETRFLQNCMTVLQDTRNIEKCNSVSVARTMLKGAFLGLDFFSKECYAIPYNDYKTGKCHLEFQTDYKGERKLMKQYSVRPIKDIYAKVVREGDKFEEIIEKGIPTINFRPKPFSNEKIIGVFAVVLFEDGGLLYETMSVEDVEKIKVGFAKRDKEGNYSKAWTATPEEMYKKTVIRRLRKSVELEFDSVEQQKTYEEASEFDVKRDEEVKEEASPFENVDFEEAEEGNTIEAKQE
As to B7, in assay [1], the “Activity across all experiments” value was −1.897. In addition, in assay [2], the “Cas9 with SSAP activity” value is −0.224 and the “Cas9 with SSAP activity (normalized)” value is on record as −0.145. Also, in assay [3], the “dCas9 with SSAP activity” value is −3.571 and the “dCas9 with SSAP activity (normalized)” value is recorded as −0.553.

B8: SSAP_95: SEQ ID NO: 264; Proteus terrae (protein, listed as Proteus terrae)
chain: SNPPLAQADLQKTQGTEVREKTKDQMLVEFINKPNMKAQLAAALPRHMAPDRMIRIVTTEIRKTPELANCDMQSFVGAVVQCSQLGLEPGNALGHAYILPFEKKRKQGNQWVTVRTDAQLIIGYRGMIDLARRSGQIVSISARTVRQGDSFHFEYGLNENLTHVPGENEDSPITHVYAVARLKDGGVQFEVMTHNQIEKVRTSSKAGQNGPWVSHWEEMAKKTVIRRLFKYLPVSIEMQKAVILDEKAEANVDQENSSVFEGEFEEVGQGA
As for B8, the “Activity across all experiments” value in assay [1] is reported as −1.672. Further, in assay [2], the “Cas9 with SSAP activity” value is −0.020 and the “Cas9 with SSAP activity (normalized)” value is reported as −0.011. In addition, in assay [3], the “dCas9 with SSAP activity” value is −3.325 and the “dCas9 with SSAP activity (normalized)” value is −0.539.

B9: SSAP_290: SEQ ID NO: 459; Anaerovirgula multivorans (protein)
chain: DAKHLTVVHQNLNTLLKAKADALPKGFNQTRFLQNCMTVLQDTKDIESVEPKSVARTMLKGAFLGLDFFNKECYAIVYNKKAGNSWIKTLEFQTDYKGEIKLAKKYSINTIKDIYAKLVREGDEFEEGVKDGKQVINFKPKPFNNNKILGAFAVAYYENGSMIYDTMSVEEIESVKKAYAKADKEGKYSKAWIESTGEMYKKTVLRRLCKLIELDFDTIEQKQAFDEGSGMEFKQEGKTDKPKSSLEAEFVEAEYEEVEESETSEVVEE
modifications: Anaerovirgula multivorans
Take B9: the “Activity across all experiments” value in assay [1] was −2.336. Further, in assay [2], the “Cas9 with SSAP activity” value is reported as −1.166 and the “Cas9 with SSAP activity (normalized)” value is listed as −0.249. For the same molecule, in assay [3], the “dCas9 with SSAP activity” value is on record as −3.506 and the “dCas9 with SSAP activity (normalized)” value is −0.681.

B10: SSAP_121: SEQ ID NO: 290; Bacillus sp. JAS24-2 (protein, listed as Bacillus sp.)
chain: ATNKDVKNQLANRKASAPVTTEQTVEAYMKKMGPKMAEVLPKHMDMDRMSRIALTTIRTNPKLLECSVPSLMGAVMSAVQLGLEPGLLGHCYILPYKSEATFIIGYKGMIDLARRSGHIQSIYAHAVYENDEFEYELGLHPQLKHKPSFGDRGEFIGAYAVAHFKDGGHQMEFMPKSEIEKRRGRSASANSNYSPWKTDYEEMAKKTVVRYMFKYLPISIEVQSQAQQDEVVRKDITEEPEFIEVEQQTEGDGQGDFVIEGE
As for B10, the “Activity across all experiments” value in assay [1] was 0.692. Also, in assay [2], the “Cas9 with SSAP activity” value is on record as −0.279 and the “Cas9 with SSAP activity (normalized)” value is recorded as −0.275. Also, in assay [3], the “dCas9 with SSAP activity” value worked out at 1.664 and the “dCas9 with SSAP activity (normalized)” value amounted to 1.531.

B11: SSAP_133: SEQ ID NO: 302; Lacrimispora celerecrescens (protein, listed as Lacrimispora celerecrescens)
chain: SDVKQELEKRAAGGGSQSQSVKLTKNMTIVDMVKALEPEIKRALPSILTPERFTRMALSAINNTPKLGECTPMSFIAALMNAAQLGLEPNTPLGQAYLIPYKNKGVLECQFQLGYRGLIDLAYRNDRMQSIEAQVVYENDEFSYELGLHPSLTHRPSFDEPGEIRAFYAIFRLDNGGFRFEVMSKSYVDAYATKYSKAFTSDFSPWKNNYEGMAKKTVIKQLLKYAPIKSDFQKAITLDETVKTQLSIDMSEIRNECLPDTSENSEVA
For the molecule B11, the “Activity across all experiments” value in assay [1] is on record as −4.276. For the same molecule, in assay [2], the “Cas9 with SSAP activity” value is recorded as −4.946 and the “Cas9 with SSAP activity (normalized)” value was −1.095. In assay [3], the “dCas9 with SSAP activity” value is given as −3.605 and the “dCas9 with SSAP activity (normalized)” value is −0.658.

B12: SSAP_21: SEQ ID NO: 190; Cellulosilyticum lentocellum (protein, listed as Cellulosilyticum lentocellum)
chain: SDKKELVLKETHSRLNQLLATKMEAMPKDFNQTRFLQNCMTVLQDTKGIENCHPVSIARTLLKGAFLGLDFFQRECYAIPYGGELQFQTDYKGETKMAKKYSIRDIKDIYAKVVRKGDEFKEEIVAGQQVVDFKPLPFNDAEIIGAFAVVLYQDGGMEYETMSTKQIEGIRDNFSKMKNGLMWTKTPEEAYKKTVLRRLTKKIEKDFASIDQAKAYEESSDMQFKQDEQKQDAKDPFADAVDVEFTEETEGQVRLDGEADGAK
With B12, the “Activity across all experiments” value in assay [1] is listed as −2.192. In addition, in assay [2], the “Cas9 with SSAP activity” value is −0.774 and the “Cas9 with SSAP activity (normalized)” value is given as −0.320. In addition, in assay [3], the “dCas9 with SSAP activity” value is listed as −3.610 and the “dCas9 with SSAP activity (normalized)” value is listed as −0.537.
